Results published in publication PMC8298264, “Function of cofactor Akirin2 in the regulation of gene expression in model human neutrophil-like HL60 cells” (Bioscience Reports, 2021).

test system: human HL60 cells; experiment: SWATH-MS proteomics, differential protein representation, akirin2 KO vs WT HL60 cells; format: cell-based; conditions: SWATH-MS, akirin2 KO vs WT HL60 cells; sheet "Under-represented in KO"
In short: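 WT and akirin2 KO HL60 lysates (150 µg, n=3 biological replicates) were FASP trypsin-digested and desalted. A spectral library was built by IDA from 3 µg digests, then 5 µg per sample went to variable-window SWATH DIA over a 120-min 5–30% acetonitrile gradient. Identifications were accepted at 1% global FDR, with total-area-sum normalization.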

| Molecule | Fold Change | Log (Fold Change) |
| --- | --- | --- |
| sp¦O00160¦MYO1F_HUMAN (protein, UniProt O00160 1-1098, looked up) Unconventional myosin-If: MGSKERFHWQSHNVKQSGVDDMVLLPQITEDAIAANLRKRFMDDYIFTYIGSVLISVNPFKQMPYFTDREIDLYQGAAQYENPPHIYALTDNMYRNMLIDCENQCVIISGESGAGKTVAAKYIMGYISKVSGGGEKVQHVKDIILQSNPLLEAFGNAKTVRNNNSSRFGKYFEIQFSRGGEPDGGKISNFLLEKSRVVMQNENERNFHIYYQLLEGASQEQRQNLGLMTPDYYYYLNQSDTYQVDGTDDRSDFGETLSAMQVIGIPPSIQQLVLQLVAGILHLGNISFCEDGNYARVESVDLLAFPAYLLGIDSGRLQEKLTSRKMDSRWGGRSESINVTLNVEQAAYTRDALAKGLYARLFDFLVEAINRAMQKPQEEYSIGVLDIYGFEIFQKNGFEQFCINFVNEKLQQIFIELTLKAEQEEYVQEGIRWTPIQYFNNKVVCDLIENKLSPPGIMSVLDDVCATMHATGGGADQTLLQKLQAAVGTHEHFNSWSAGFVIHHYAGKVSYDVSGFCERNRDVLFSDLIELMQTSEQAFLRMLFPEKLDGDKKGRPSTAGSKIKKQANDLVATLMRCTPHYIRCIKPNETKRPRDWEENRVKHQVEYLGLKENIRVRRAGFAYRRQFAKFLQRYAILTPETWPRWRGDERQGVQHLLRAVNMEPDQYQMGSTKVFVKNPESLFLLEEVRERKFDGFARTIQKAWRRHVAVRKYEEMREEASNILLNKKERRRNSINRNFVGDYLGLEERPELRQFLGKRERVDFADSVTKYDRRFKPIKRDLILTPKCVYVIGREKVKKGPEKGQVCEVLKKKVDIQALRGVSLSTRQDDFFILQEDAADSFLESVFKTEFVSLLCKRFEEATRRPLPLTFSDTLQFRVKKEGWGGGGTRSVTFSRGFGDLAVLKVGGRTLTVSVGDGLPKSSKPTRKGMAKGKPRRSSQAPTRAAPAPPRGMDRNGVPPSARGGPLPLEIMSGGGTHRPPRGPPSTSLGASRRPRARPPSEHNTEFLNVPDQGMAGMQRKRSVGQRPVPGVGRPKPQPRTHGPRCRALYQYVGQDVDELSFNVNEVIEILMEDPSGWWKGRLHGQEGLFPGNYVEKI | 0.7701 | -0.1134 |
| sp¦P54687¦BCAT1_HUMAN (protein, UniProt P54687 1-386, looked up) Branched-chain-amino-acid …: MKDCSNGCSAECTGEGGSKEVVGTFKAKDLIVTPATILKEKPDPNNLVFGTVFTDHMLTVEWSSEFGWEKPHIKPLQNLSLHPGSSALHYAVELFEGLKAFRGVDNKIRLFQPNLNMDRMYRSAVRATLPVFDKEELLECIQQLVKLDQEWVPYSTSASLYIRPTFIGTEPSLGVKKPTKALLFVLLSPVGPYFSSGTFNPVSLWANPKYVRAWKGGTGDCKMGGNYGSSLFAQCEAVDNGCQQVLWLYGEDHQITEVGTMNLFLYWINEDGEEELATPPLDGIILPGVTRRCILDLAHQWGEFKVSERYLTMDDLTTALEGNRVREMFGSGTACVVCPVSDILYKGETIHIPTMENGPKLASRILSKLTDIQYGREESDWTIVLS | 0.7726 | -0.112 |
| sp¦Q9NPJ3¦ACO13_HUMAN (protein, UniProt Q9NPJ3 1-140, looked up) Acyl-coenzyme A thioesterase …: MTSMTQSLREVIKAMTKARNFERVLGKITLVSAAPGKVICEMKVEEEHTNAIGTLHGGLTATLVDNISTMALLCTERGAPGVSVDMNITYMSPAKLGEDIVITAHVLKQGKTLAFTSVDLTNKATGKLIAQGRHTKHLGN | 0.7707 | -0.1131 |
| sp¦P22087¦FBRL_HUMAN (protein, UniProt P22087 1-321, looked up) rRNA 2'-O-methyltransferase …: MKPGFSPRGGGFGGRGGFGDRGGRGGRGGFGGGRGRGGGFRGRGRGGGGGGGGGGGGGRGGGGFHSGGNRGRGRGGKRGNQSGKNVMVEPHRHEGVFICRGKEDALVTKNLVPGESVYGEKRVSISEGDDKIEYRAWNPFRSKLAAAILGGVDQIHIKPGAKVLYLGAASGTTVSHVSDIVGPDGLVYAVEFSHRSGRDLINLAKKRTNIIPVIEDARHPHKYRMLIAMVDVIFADVAQPDQTRIVALNAHTFLRNGGHFVISIKANCIDSTASAEAVFASEVKKMQQENMKPQEQLTLEPYERDHAVVVGVYRPPPKVKN | 0.7688 | -0.1142 |
